In one data set the target is T1, SeqA(E5,9K) (Escherichia coli, UniProt P0AFY8 1-181, E5K;E9K).
T1 sequence: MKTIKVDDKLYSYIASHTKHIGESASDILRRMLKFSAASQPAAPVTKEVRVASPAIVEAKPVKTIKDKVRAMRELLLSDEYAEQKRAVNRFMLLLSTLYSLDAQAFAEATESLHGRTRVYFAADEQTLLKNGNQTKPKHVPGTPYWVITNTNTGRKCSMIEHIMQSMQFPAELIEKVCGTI
In words: EMSA. (A gel shift assay detects complexes by their altered migration in electrophoresis.)

For the next data set, the target named is T2, SeqA(D7K) (Escherichia coli, UniProt P0AFY8 1-181, D7K).
T2 sequence: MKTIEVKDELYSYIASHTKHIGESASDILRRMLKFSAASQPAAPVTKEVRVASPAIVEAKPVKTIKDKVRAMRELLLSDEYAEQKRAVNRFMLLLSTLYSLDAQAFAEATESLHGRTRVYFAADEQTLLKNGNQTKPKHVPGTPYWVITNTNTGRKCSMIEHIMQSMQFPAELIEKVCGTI
In words: EMSA.

The target in data set [1] is T3, SeqA (Escherichia coli, UniProt P0AFY8 1-181).
T3 sequence: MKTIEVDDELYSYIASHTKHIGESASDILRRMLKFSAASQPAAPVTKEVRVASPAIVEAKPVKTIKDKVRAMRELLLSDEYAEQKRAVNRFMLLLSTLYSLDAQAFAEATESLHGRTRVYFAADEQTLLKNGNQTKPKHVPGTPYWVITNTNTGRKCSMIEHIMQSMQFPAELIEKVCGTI
Kind of data set: AFM.

The next data set deals with T4, SeqA(D8K) (Escherichia coli, UniProt P0AFY8 1-181, D8K).
T4 sequence: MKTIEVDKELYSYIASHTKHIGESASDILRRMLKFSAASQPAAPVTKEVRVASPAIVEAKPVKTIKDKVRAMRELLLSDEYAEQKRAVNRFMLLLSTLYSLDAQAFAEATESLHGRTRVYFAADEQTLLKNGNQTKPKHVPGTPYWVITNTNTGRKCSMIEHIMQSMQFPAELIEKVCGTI
In words: EMSA.

The next data set deals with T5, SeqA(E9K) (Escherichia coli, UniProt P0AFY8 1-181, E9K).
T5 sequence: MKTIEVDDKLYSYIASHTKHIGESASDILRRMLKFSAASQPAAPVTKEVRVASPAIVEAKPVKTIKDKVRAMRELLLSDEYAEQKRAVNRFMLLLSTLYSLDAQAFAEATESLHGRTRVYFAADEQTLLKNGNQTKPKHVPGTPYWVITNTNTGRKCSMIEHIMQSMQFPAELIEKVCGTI
Kind of data set: EMSA.

In a further data set the target is T6, SeqA(E5K) (Escherichia coli, UniProt P0AFY8 1-181, E5K).
T6 sequence: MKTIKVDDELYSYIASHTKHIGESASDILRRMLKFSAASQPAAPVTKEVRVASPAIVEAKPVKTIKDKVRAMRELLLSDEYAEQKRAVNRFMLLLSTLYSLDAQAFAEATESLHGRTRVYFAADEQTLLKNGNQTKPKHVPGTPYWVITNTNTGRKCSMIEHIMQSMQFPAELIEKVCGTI
In words: EMSA.

For data set [2], the target named is T3, SeqA. Kind of data set: EMSA.
Another data set deals with T7, SeqA(T18G) (Escherichia coli, UniProt P0AFY8 1-181, T18G).
T7 sequence: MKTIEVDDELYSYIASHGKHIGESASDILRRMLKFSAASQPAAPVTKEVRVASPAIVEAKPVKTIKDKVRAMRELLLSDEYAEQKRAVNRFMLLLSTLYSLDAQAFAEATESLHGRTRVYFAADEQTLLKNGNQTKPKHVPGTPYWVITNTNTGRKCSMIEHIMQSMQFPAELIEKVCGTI
Kind of data set: EMSA.

For data set [3], the target named is T3, SeqA. Kind of data set: AFM. The source holds these as a separate data set.

B1: 75 bp, two hemi-sites, 21 bp spacing (dsDNA)
DNA 1: CTGGGTATTAAAAAGAAGATCTATTTATGTTCAGTTCTGATCTGTTCTGTTCTCTTATTAGGCTCGCACTGCCCT
DNA 2: AGGGCAGTGCGAGCCTAATAAGAGAACAGAACAGATCAGAACTGAACATAAATAGATCTTCTTTTTAATACCCAG
modifications: hemi-methylated GATC (N6-methyladenine on one strand; which strand not stated)
For the molecule B1, the binding result with SeqA(E5,9K) is on record as “no binding”; in the data set with SeqA(D7K) it was “no binding”; with SeqA [1], “binds”; in the data set with SeqA(D8K), “binds”; with SeqA(E9K) it was “binds”; with SeqA(E5K), “binds”.

B2: 75 bp, two hemi-sites, 16 bp spacing (Fig 3A) (dsDNA)
DNA 1: CTGGGTATTAAAAAGAAGATCTATTTATTTAGAGATCTGTTCTATTGTGATCTCTTATTAGGATCGCACTGCCCT
DNA 2: AGGGCAGTGCGATCCTAATAAGAGATCACAATAGAACAGATCTCTAAATAAATAGATCTTCTTTTTAATACCCAG
modifications: hemi-methylated GATC (N6-methyladenine on one strand; which strand not stated)
Consider B2, for which the binding result with SeqA [2] and with SeqA(T18G) was “binds” in each case.

B3: 75 bp, two hemi-sites, 16 bp spacing (Fig 2E) (dsDNA)
DNA 1: CTGGGTATTAAAAAGAAGATCTATTTATGTTCAGATCTGTTCTGTTCTGTTCTCTTATTAGGCTCGCACTGCCCT
DNA 2: AGGGCAGTGCGAGCCTAATAAGAGAACAGAACAGAACAGATCTGAACATAAATAGATCTTCTTTTTAATACCCAG
modifications: hemi-methylated GATC (N6-methyladenine on one strand; which strand not stated)
B3: in the data set with SeqA [3], the binding result is recorded as “binds”.

B4: 75 bp, two hemi-sites, 31 bp spacing (dsDNA)
DNA 1: CTGGGTATTAAAAAGAAGATCTATTTATGTTCAGTTCTGTTCTGTTCTGATCTCTTATTAGGCTCGCACTGCCCT
DNA 2: AGGGCAGTGCGAGCCTAATAAGAGATCAGAACAGAACAGAACTGAACATAAATAGATCTTCTTTTTAATACCCAG
modifications: hemi-methylated GATC (N6-methyladenine on one strand; which strand not stated)
As for B4, the binding result in the data set with SeqA [3] is given as “binds”.

B5: 75 bp, two hemi-sites, 11 bp spacing (dsDNA)
DNA 1: CTGGGTATTAAAAAGAAGATCTATTTATGATCAGTTCTGTTCTGTTCTGTTCTCTTATTAGGCTCGCACTGCCCT
DNA 2: AGGGCAGTGCGAGCCTAATAAGAGAACAGAACAGAACAGAACTGATCATAAATAGATCTTCTTTTTAATACCCAG
modifications: hemi-methylated GATC (N6-methyladenine on one strand; which strand not stated)
For the molecule B5, the binding result in the data set with SeqA [3] is on record as “binds”.

The record behind these values is publication PMC1065253.
